In paper PMC8249609 (2021) one finds koff data, which are given here for 1 molecule.

In the test the target is T1, AT1 receptor, residues 1-318, with N-terminal Flag-tag and BRIL (Flag-BRIL-AT1) (human (by the printed RefSeq …, UniProt P30556 1-318)).
T1 chain: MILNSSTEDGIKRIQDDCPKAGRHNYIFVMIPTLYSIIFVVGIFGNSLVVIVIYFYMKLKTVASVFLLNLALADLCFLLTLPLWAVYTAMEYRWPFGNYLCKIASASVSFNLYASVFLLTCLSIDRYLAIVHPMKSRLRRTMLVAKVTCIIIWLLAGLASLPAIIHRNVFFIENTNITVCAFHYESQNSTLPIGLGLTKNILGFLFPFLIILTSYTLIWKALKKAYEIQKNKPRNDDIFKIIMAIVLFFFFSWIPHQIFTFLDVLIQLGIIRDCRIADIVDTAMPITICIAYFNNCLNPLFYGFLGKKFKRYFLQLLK
As to the kind of experiment: SPR. On the technique in general: Surface plasmon resonance follows binding to a sensor surface in real time, without labels.

Broadly, the koff is a measure of how fast the partners let go of each other. Read a high koff as fast dissociation.

B1: cartilage oligomeric matrix protein with a C-terminal His-tag (COMP-His) (natural protein)
chain: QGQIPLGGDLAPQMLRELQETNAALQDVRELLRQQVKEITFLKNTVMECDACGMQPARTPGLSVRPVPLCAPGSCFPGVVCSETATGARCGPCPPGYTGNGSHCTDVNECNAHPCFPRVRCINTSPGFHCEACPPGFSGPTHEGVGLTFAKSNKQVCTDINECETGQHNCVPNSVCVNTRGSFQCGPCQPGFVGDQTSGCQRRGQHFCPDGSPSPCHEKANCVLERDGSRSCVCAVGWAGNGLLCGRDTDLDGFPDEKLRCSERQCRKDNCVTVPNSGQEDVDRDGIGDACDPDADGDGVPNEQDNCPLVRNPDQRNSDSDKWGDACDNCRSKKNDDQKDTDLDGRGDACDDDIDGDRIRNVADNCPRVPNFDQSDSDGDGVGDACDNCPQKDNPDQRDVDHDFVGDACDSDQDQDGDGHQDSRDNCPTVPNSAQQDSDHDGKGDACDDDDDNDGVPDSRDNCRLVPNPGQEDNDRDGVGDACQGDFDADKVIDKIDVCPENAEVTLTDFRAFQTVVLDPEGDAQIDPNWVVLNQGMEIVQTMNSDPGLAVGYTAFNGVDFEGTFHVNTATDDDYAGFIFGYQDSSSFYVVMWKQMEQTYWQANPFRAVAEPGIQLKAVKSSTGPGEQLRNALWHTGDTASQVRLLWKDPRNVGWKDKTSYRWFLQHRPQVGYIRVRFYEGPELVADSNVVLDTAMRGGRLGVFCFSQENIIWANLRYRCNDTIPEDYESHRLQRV
With B1, the koff was determined as 0.000389 s⁻¹.
